Experimental data from the DeepSol protein solubility set.

Experiment: soluble on expression in E. coli; label from the status in PepcDB or PDB records

Sequence	soluble on expression in E. coli
SSGLSFSEMEGCRNLLGLLDNDEIMALCDTVTNRLVQPQDRQDAVHAILAYSQSAEELLRRRKVHREVIFKYLATQGIVIPPATEKHNLIQHAKDYWQKQPQLKLKETPEPVTKTEDIHLFQQQVKEDKKAEKVDFRRLGEEFCHWFFGLLNSQNPFLGPPQDEWGPQHFWHDVKLRFYYNTSEQNVMDYHGAEIVSLRLLSLVKEEFLFLSPNLDSHGLKCASSPHGLVMVGVAGTVHRGNTCLGIFEQIFGLIRCPFVENTWKIKFINLKIMGESSLAPGTLPKPSVKFEQSDLEAFYNVITVCGTNEVRHNVKQASDSGTGDQV	soluble
MGHHHHHHGSRKGAELGILIKNADALEVAEKVTAVIFDKTGTLTKGKPEVTDLVPLNGDERELLRLAAIAERRSEHPIAEAIVKKALEHGIELGEPEKVEVIAGEGVVADGILVGNKRLMEDFGVAVSNEVELALEKLEREAKTAVIVARNGRVEGIIAVSDTLKESAKPAVQELKRMGIKVGMITGDNWRSAEAISRELNLDLVIAEVLPHQKSEEVKKLQAKEVVAFVGDGINDAPALAQADLGIAVGSGSDVAVESGDIVLIRDDLRDVVAAIQLSRKTMSKIK	soluble
MGSDKIHHHHHHMSRPRIHPLQALFGAHEHRPDLPVCDHYAGVEPRMRKALALQADMADTALFDVTLDLEDGAPVGGEPEHARLAAELVSSAANRHGRVGVRVHPYPHPSFADDVRSLLAGAGERLAYLMIPKAQGVEELRDAIAAIEATRREQGLARAVPVHALVETHGALRDVQAIAALPAIESLSFGLMDFVSAHHGAIPAFGMSLAGQFSHPLVLRAKLEISAACHAAGKLPSHCVVTEYSDTQAIAQAATRASRELGYARMWSIHPNQIRPIVEAFAPVPAEIEAALDILLAAQAADWAPIAHRGLLQDRASYRYHWHVLERAARTGRSLPDTARSAFFATAAA	not soluble
MTHYKYYEANVETNQVLVLLHGFLSDSRTYYNHIDKYTDICHVITIDLPGHGEDQSSMDETWNFDYITTLLDRILDKYKDKSITLFGYSMGGRVALYYAINGHIPISNLILESTSPGIKEEANQLERRLVDDARAKVLDIAGIELFVNDWEKLPLFQSQLELPVEIQHQIRLQRLSQSPQKMAKALRDYGTGQMPNLWPRLKEIKVPTLILAGEYDEKFVQIAKKMANLIPNSKCKLISATGHTIHVEDSDEFDTMILGFLKEEQND	not soluble
MNILLFGKTGQVGWELQRSLAPVGNLIALDVHSKEFCGDFSNPKGVAETVRKLRPDVIVNAAAHTAVDKAESEPELAQLLNATSVEAIAKAANETGAWVVHYSTDYVFPGTGDIPWQETDATSPLNVYGKTKLAGEKALQDNCPKHLIFRTSWVYAGKGNNFAKTMLRLAKERQTLSVINDQYGAPTGAELLADCTAHAIRVALNKPEVAGLYHLVAGGTTTWHDYAALVFDEARKAGITLALTELNAVPTSAYPTPASRPGNSRLNTEKFQRNFDLILPQWELGVKRMLTEMFTTTTI	soluble
MAHHHHHHSSGLEVLFQGPEPKKYAVTDDYQLSKQVLGLGVNGKVLECFHRRTGQKCALKLLYDSPKARQEVDHHWQASGGPHIVCILDVYENMHHGKRCLLIIMECMEGGELFSRIQERGDQAFTEREAAEIMRDIGTAIQFLHSHNIAHRDVKPENLLYTSKEKDAVLKLTDFGFAKETTQNALQTPCYTPYYVAPEVLGPEKYDKSCDMWSLGVIMYILLCGFPPFYSNTGQAISPGMKRRIRLGQYGFPNPEWSEVSEDAKQLIRLLLKTDPTERLTITQFMNHPWINQSMVVPQTPLHTARVLQEDKDHWDEVKEEMTSALATMRVDYDQV	soluble
MSSNLQLVETFDSRQFVVARWNRNDTTAMVPSAIAVVVFVESVEYKLGCKEKIGYSPTPEDQDQFMILQMESIDEANRICHDSIAKGFAINNTKIVFTPLLGLNGFRLQDAIDFMKTSQPHFNNDELLEVLTMAICQELPERLKILEDGFSFIEQGVSELIQNSACEMFGSFASPVRRNGYSDIDINVESVSAPGQRVSTNVRPLNEVVANPKCLITHPLTKSELETYPQEEIIKILYRCFNENSAFKTKFEMRFLPARTPIIVFKNIEVEGMNVSYDLSVHNQISVEKASLLHEFIVKDKSKGSRMKNAMMFIVHWAKSNKLLSGDYPEEKLEVKTKLNSYIINQLVIHFVQAATNKVHVNPQAKRDSRVNEYNFDTLFGDYCKFFRELFKYYANFDFTNKAIYGKKAMQKKTLSSAHGGVEESPLMLMDPMDITHNISAKVTEDAVKLLNGLIRNALFILKQNHFHINYLLETNTMATMLMKSREPKISISTRVTDGAEHQYLSVQLPAVVITSSDLFLLLTRVLRFNVCPNEQGPSVVDLCTPTGAIFLVTSRAWVGRRNTKRALKNSRHDLTPLQIDVMCSDKYDYEEDIAELRISMSTVPGTRIRLACIDIMRGQVSEVRDAIHFLIDQFINNNYDDLEKNGVQTISRIPIAAPTWP	not soluble
MKTGKELKPGTVLRIDNDPWLVQKAEFTKSGRNSAIMKTKLKNLLTGYKTETVYGADDKLDDVILDRKEATLSFINGDEYTFMDTTDYTMYELNAEDIEAVLPYIEEGMEDVCEAVFFEGRLVSVELPTTISRKVVYTENAARGDTSGKVMKPAKLANGTEISVADFIQIDEWIDIDTRDNSFKGRSKKLEHHHHHH	soluble
SLSKKATYPKVMCTQHPDSASKYISTQEEPGEAIEAAVVFGCDEYMPDYEGKATPYHQNVQIVSRFIEETDLIPGKDIFITPRAPSAAQENRFRQLMVMMSIAEANHGALEYSDVQAINEFVHPMTGTVGEILDAQQHMVDVGELAKKEFGVAMEVPRIIPLIEDAPALLHAKELAENTLLSWEKRFGAAPEKFRVFLGKSDSALSFGHVASTLSCKYAISGISELDLELDTSTGIIFGAGTLPFRGHLSLKNAENFFREYRGIGTITLQSAVRYSHDKGEAEALVRLAEERLPESPEIYSGEEKEEIVNLIGIFGARYNRIIREMSCTINQLAGLLPQQRDRLMHKGTGGYSRNVPDISGLVCLCRKDVGKELSASMPAEDLNLPRAIKFTGALYSIGLPPEFIGTGTALEEAREKLGEEACERLLKKYFPSLASDLSFASGYLDLNVASRFLPEACLKEIRKDIEVLRDTFSLKVQPEPSYRILLEMMQPDLLQAGTKGNCMDEEVSQLVCSTLTKMGKIRKALG	not soluble
MLPKYEQIKQDLLREIKNHTFIPGDKFYSEADIKRKYAVSSITAVKALNELTSAGYLYRIQGKGTFVSKSKVSQNVKFSDIELHSLDSEKVKVLSIEEDNQAEILKELGLPANASYYRIKRVRYSEDTPFLVHITHLPKKLVKEPLSKDLTAYASVYERVRKDFSVDLFSLASVETNEIVFPEDAELLNLLQLSFREPAVKQVKHSYLADGSVAEYIISYKHWKYFKTKIEVEAE	not soluble
MGKTQEFLRLRRIIALSSLLASRKSAMCLAVLALHAIPGLPVLIAANRDEFHARPTAEATRWPGSPAIYAGRDLQAGGTWLGVSDQGRYAVVTNFRDPRNIQPDAPSRGALVEAFLRGAASAQEYLRDVHARGARYNGFNLIVGDAGGAWYCSNRDGAPQRLAAGVYALSNHLLDTPWPKLARTKAAFERIIAATPQPDLAALYAALADPTPAADHELPATGLALERERLLSSPFIVSPDYGTRSACILALHDDGRGELHERRFRPDGAIAGQADLDFPWRAARAELHRASCVLEHHHHHH	not soluble
MEKMYNVGKIVNTHGLIGEIRVIATTDFPEERFQVGNTVYLFEKNSKKPEKLIIRSHRKHKNFDLLMFEGFTGIHQVERMKEGVLKIKETQLTNLEENEFYFHEIIGCTVVTTDGEELGEITEILTPGANDVWVVKGADKKEKLIPYIADVVKEINIDDQKITIEVMEGLLD	soluble
MIEQPSPKVYDELLSIWEEAVRSTHHFLTEADIQFYKPLIRHEYLAAVRLYIIREDSGTIAAFMGLSNDCIEMLFVRPNAHGHGYGSRLVEFAIRKKRIYKVDVNEQNAAALGFYLHMGFETTGRDALDATGKPFPILHLQIPPIRLRKATLEDIDLLRTLFTQSVQNTCSTDYNRLQIQAWTGRGTLQRWHELFQSDLYFLLAEDSRKSQVAGFTSVNSKGYLHSMFVHPDYQRQGIASRLLLKAEEYVRIRQGVSVYSEVSITARPFFEKHGYSIEKEQTVSVGDIEMTNFLMYKRI	not soluble
MGSDKIHHHHHHMNRELILKALIDWNFWYKNQFVGIEREYSDQLLDLLEKGLAISVIGVKRSGKSTIINQVVKKLIEKKGEDPFDTLIVNFEDSRFGDIRTANDLFSLYELYKELRKKKKDSKPYIFLDEVQKIKGWEGFVRSIVDRKEANIVISGSTASVNNKSVREVLAGRHLILEVFPLSFKEFLEFKNIRLETELDMIAKESEIKVLFSEYLSYGGFPLVVSNERDKEKILLQLYEDIIFKDVISECNIRNEEEAKNLAIFYISNVGNKIRFRKISRSLNIPFRNVQRYTECMKNAYLIFFVKALSPKLSEMAKYDKKVYCIDNGISNVLGYRLNQNIGSLFENLIFLELLRRYGINNVFYYRGRRGEVDFVVKVKDEIREIYQVTYQLSDVERELKGIEEFLKIRKTKAYIITFDDEGEIKVGDDLVKVVKGWKWLLLE	not soluble
MSLGPVENHSLPRTAAFFDLDKTVIAKSSTLTFSKSFYQGGLINRRAVLRTAYAQFVFLAGGADHDQMERMREYLSALCRGWNVRQVKEIVAETLHDLIDPIIYDEAASLIEEHHTAGRDVVIVSTSGAEVVEPIGELLGADRVVATRMIVGDDGCFTGEVEYYAYGPTKAEAIKELAASEGYDLARCYAYSDSATDLPMLESVGHPHAVNPDRALRREAIARQWPILDFHRPVRLKQRLPALSVPPREGHHHHHH	soluble
MGSDKIHHHHHHMINNYLERQIKENFPYQPTFEQEIAVKSLSEFLLSTLADEVFILRGYAGTGKTSLVGALVKTMDQLQQKAVLLAPTGRAAKVFSSYAGHPAFTIHKKIYRQQSFSNETSNFSINDNLATNTLFIVDEASMISNEGLSGSMFGTGRLLDDLIQFVYSGQGCRLLLMGDTAQLPPVGEELSPALFADALKGYGLEVREVDLTQVVRQIQESGILWNATQLRQLIAEDNCYSLPKIKITGFPDIKMVPGTELIDAITSCYDHDGMDETIVICRSNKRANLYNNGIRAQILWREDELNTGDMLMIAKNNYYWTEQYKEMDFIANGEIAVVRRVRKTREMYGFRFAEVTLRFPDQNDFELDANLLLDTLHSDSPALPKVDNDRLFYTILEDYADISNKRDRMKKMKADPHYNALQVKYAYAITCHKAQGGQWQNVFLDQGYMTDEYLTPDYFRWLYTAFTRATKTLYLVNYPKEQIL	not soluble
DRGRMANIFGANNFYYAKSQAMLYTVSQNADFITAGLVDPVFLPLGNQQRAATHLNEPKSQKILFIVAESWGLPANPELQNATFAKLLAQKDRFSVWESGSFPFIGATVEGEMRELCAYGGLRGFALRRAPDEKFARCLPNRLKQEGYATFAMHGAGSSLYDRFSWYPRAGFQEIKTAENLIGKKTCAIFGGVCDSELFGEVSAFFKKHDKGLFYWMTLTSHADYPESDIFNHRLKCTEYGLPAETDLCRNFSLHTQFFDQLADLIQRPEMKGTEVIIVGDHPPPVGNLNETFRYLKQGHVAWLNFKIK	not soluble
MQFHAVYQNNDTKANLDFALNISTINFATLQELQNSFDLQGSDLTAGLFYKYSVNKLTSGTNDLTTIAKTALGENIIQKQVSLTQSIIKPRLEAAKTQYKQDIIAPFAKERQAALAQHL	not soluble
MIVWSVANQKGGVGKTTTTITLAGLLSQQGKRVLLVDTDPHASLTTYLGYDSDGVPASLFDLFQLREYNEASVKPLILNTDIQGIDLIPAHMSLATLDRVMGNRSGMGLILKRALLALRHVYDYVLIDCPPILGVMMVNALAASDRILIPVQTEFLAMKGLERMVRTLAIMQKSRSREFKVTIVPTMYDKRTRASLQTLNQLKKDYPDKVWTSAVPIDTKFRDASLQRLPASHFAEGSRGVFAYKQLLLFLERLAIDE	not soluble
GPLENWFTEFDIKPLASASIAQVHTARLKDTNQEVVLKVIRPDIRPVIDSDLKLMHRMARIVAGAMPEARRLKPVEVVREYEKTLLDELDLRREAANAIQLRRNFEGSEELYVPEVFPDFS	not soluble
